Data published in patent US20210230272A1 (L AND L BIOPHARMA, published 2021).

B1: LB309 (bispecific antibody)
chain 1: not shown
chain 2: QVQLVQSGAEVKKPGSSVKVSCKASGYAFSNYLIEWVKQAPGQGLEWIGLINPGSGGTNYNEKFKGKATITADKSTSTAYMELSSLRSEDTAVYYCARVYYGNSFAYWGQGTLVTVSS
chain 3: DIVMTQSPDSLAVSLGERATISCKSSQSLLNSGNQKNYLTWYQQKPGQPPKLLIYWASTRESGVPDRFSGSGSGTDFTLTISSLQAEDVAVYYCQNDYFYPFTFGQGTKLEIK
chain 4: not shown
B2: LB308 (bispecific antibody)
chain 1: not shown
chain 2: B1 chain 2
chain 3: B1 chain 3
chain 4: EIVLTQSPATLSLSPGERATLSCRASKGVSTSGYSYLHWYQQKPGQAPRLLIYLASYLESGVPARFSGSGSGTDFTLTISSLEPEDFAVYYCQHSRDLPLTFGGGTKVEIKRTVAAPSVFIFPPSDEQLKSGTASVVCLLNNFYPREAKVQWKVDNALQSGNSQESVTEQDSKDSTYSLSSTLTLSKADYEKHKVYACEVTHQGLSSPVTKSFNRGEC
B3: LB312 (bispecific antibody)
chain 1: not shown
chain 2: B1 chain 3
chain 3: B1 chain 2
chain 4: B2 chain 4
B4: LB313 (bispecific antibody)
chain 1: not shown
chain 2: B2 chain 4
chain 3: B1 chain 2
chain 4: B1 chain 3
B5: LB314 (bispecific antibody)
chain 1: B1 chain 3
chain 2: B1 chain 2
chain 3: not shown
chain 4: B1 chain 2
chain 5: B1 chain 3
chain 6: not shown

Key:
human PD-1 [1] = target: T1, human PD-1 (human, UniProt Q15116 25-170); assay: blocking ELISA; IC50 ratio to the control monoclonal antibody
T1 construct: extracellular domain; also called PD-1 antigen

human PD-1 [2] = target: T1, human PD-1; assay: ELISA, PD-1 coated
human PD-1 [3] = target: T1, human PD-1; assay: ELISA; EC50 ratio to the control monoclonal antibody
human PD-1 [4] = target: T1, human PD-1; assay: blocking ELISA: PD-1 coated, biotin-labelled PD-L1

T1 sequence (Q15116 25-170): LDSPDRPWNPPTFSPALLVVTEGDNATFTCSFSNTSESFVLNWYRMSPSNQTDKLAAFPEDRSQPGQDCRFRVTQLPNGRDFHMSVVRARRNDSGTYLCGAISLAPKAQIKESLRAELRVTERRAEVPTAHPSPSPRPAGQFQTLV

Binder	IC50 fold change (human PD-1 [1])	EC50 (human PD-1 [2])	EC50 fold change (human PD-1 [3])	IC50 (human PD-1 [4])
B1	2.42	0.16 nM	1.33	0.8 nM
B2	1.8	0.25 nM	0.93	1.93 nM
B3		0.042 nM	3	
B4		0.048 nM	3.4	
B5		0.083 nM	5.2	
